Measured values published in article PMC12217004, “Evolutionary regulation of human Fas ligand (CD95L) by plasmin in solid cancer immunotherapy” (Nature Communications, 2025).

T1: human Fas ligand extracellular domain, shorter form, His-tagged (HuFasL^S, 134-281) (human), P48023
T1 chain: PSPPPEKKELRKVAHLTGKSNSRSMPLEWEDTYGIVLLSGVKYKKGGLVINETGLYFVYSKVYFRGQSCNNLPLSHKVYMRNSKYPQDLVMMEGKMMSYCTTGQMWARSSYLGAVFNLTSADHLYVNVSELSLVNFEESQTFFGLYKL


What was measured:
[1] = biological target: human Fas ligand extracellular domain, shortest form, His-tagged (HuFasL^ST, 146-281) (human) (UniProt P48023); assay: SEC; freshly purified FasL in PBS, 10 ug loaded on Superdex 200 10/300 GL, 1 ml/min, A280; trimer and monomer peaks
[2] = biological target: Rhesus monkey Fas ligand extracellular domain, shortest form (RhFasL^ST) (Rhesus monkey) (UniProt P63307); assay: as above
[3] = biological target: murine Fas ligand extracellular domain, shorter form, His-tagged (muFasL^S, 134-281) (mouse) (UniProt P41047); assay: non-reducing gel with 60% lowered SDS, FasL immunoblot; his-tagged human and murine FasL forms added onto murine 4T1 cells (also human OVCAR3 cells) for 2 hr in serum-free media; supernatant precipitated and loaded without boiling on non-reducing gels
[4] = biological target: murine Fas ligand extracellular domain, long form, His-tagged (muFasL^L, 103-281) (mouse) (UniProt P41047); assay: as above
[5] = biological target: the molecule itself; assay: SEC; freshly purified FasL in PBS, 10 ug loaded on Superdex 200 10/300 GL, 1 ml/min, A280; trimer and monomer peaks
[6] = biological target: T1, human Fas ligand extracellular domain, …; assay: as above; conditions: remark: other sources report otherwise

Row | Molecule | stoichiometry N [5] | also measured
1 | human Fas ligand extracellular domain, shortest form, His-tagged (HuFasL^ST, 146-281) (from UniProt P48023 146-281) (domain or fragment) | – | stoichiometry N [1]: 3
2 | Rhesus monkey Fas ligand extracellular domain, shortest form (RhFasL^ST) (from UniProt P63307 146-280) (domain or fragment) | – | stoichiometry N [2]: 3
3 | murine Fas ligand extracellular domain, shorter form, His-tagged (muFasL^S, 134-281) (from UniProt P41047 134-279) (domain or fragment) | – | stoichiometry N [3]: 3
4 | murine Fas ligand extracellular domain, long form, His-tagged (muFasL^L, 103-281) (from UniProt P41047 103-279) (domain or fragment) | – | stoichiometry N [4]: 3
5 | human Fas ligand extracellular domain, long form, His-tagged (HuFasL^L, 103-281) (domain or fragment, UniProt P48023 103-281, looked up, human Fas ligand (FasL, CD95L), entire extracellular domain, residues 103-281 (Q103-L281), carries S153; C-terminal His-tag versions were poorly expressed and not functional; N-terminal His-tag proteins were used; Mixture of trimer and monomer by SEC; also called Long^(L); huFasL^WT; source: Freestyle CHO-S cells, transfected, purified from supernatant (his-TRAP); not shown: His tag, N-terminal, …) QLFHLQKELAELRESTSQMHTASSLEKQIGHPSPPPEKKELRKVAHLTGKSNSRSMPLEWEDTYGIVLLSGVKYKKGGLVINETGLYFVYSKVYFRGQSCNNLPLSHKVYMRNSKYPQDLVMMEGKMMSYCTTGQMWARSSYLGAVFNLTSADHLYVNVSELSLVNFEESQTFFGLYKL | 3 | –
6 | human Fas ligand extracellular domain, long form, S153P (HuFasL-S153P^L, 103-281) (domain or fragment, UniProt P48023 103-281, looked up, human Fas ligand (FasL), residues 103-281 with S153P; The substitution was engineered here; source: Freestyle CHO-S cells, transfected, purified from supernatant (his-TRAP)) QLFHLQKELAELRESTSQMHTASSLEKQIGHPSPPPEKKELRKVAHLTGKPNSRSMPLEWEDTYGIVLLSGVKYKKGGLVINETGLYFVYSKVYFRGQSCNNLPLSHKVYMRNSKYPQDLVMMEGKMMSYCTTGQMWARSSYLGAVFNLTSADHLYVNVSELSLVNFEESQTFFGLYKL | 3 | –
7 | human Fas ligand extracellular domain, shorter form, His-tagged (HuFasL^S, 134-281), P48023 134-281 (domain or fragment) PSPPPEKKELRKVAHLTGKSNSRSMPLEWEDTYGIVLLSGVKYKKGGLVINETGLYFVYSKVYFRGQSCNNLPLSHKVYMRNSKYPQDLVMMEGKMMSYCTTGQMWARSSYLGAVFNLTSADHLYVNVSELSLVNFEESQTFFGLYKL | – | stoichiometry N [6]: 3
8 | human Fas ligand extracellular domain, shorter form, S153P (HuFasL-S153P^S, 134-281) (domain or fragment, UniProt P48023 134-281, looked up, human Fas ligand (FasL), residues 134-281 with S153P; The substitution was engineered here; source: Freestyle CHO-S cells, transfected, purified from supernatant (his-TRAP)) PSPPPEKKELRKVAHLTGKPNSRSMPLEWEDTYGIVLLSGVKYKKGGLVINETGLYFVYSKVYFRGQSCNNLPLSHKVYMRNSKYPQDLVMMEGKMMSYCTTGQMWARSSYLGAVFNLTSADHLYVNVSELSLVNFEESQTFFGLYKL | 3 | –
9 | Rhesus monkey Fas ligand extracellular domain, shorter form (RhFasL^S, 134-281) (domain or fragment, UniProt P63307 134-280, looked up, Rhesus monkey Fas ligand (FasL), residues 134-281, carries P153; source: Freestyle CHO-S cells, transfected, purified from supernatant (his-TRAP)) SPPPEKKEQRKVAHLTGKPNSRSMPLEWEDTYGIVLLSGVKYKKGGLVINETGLYFVYSKVYFRGQSCTNLPLSHKVYMRNSKYPQDLVMMEGKMMSYCTTGQMWAHSSYLGAVFNLTSADHLYVNVSELSLVNFEESQTFFGLYKL | 3 | –
10 | Rhesus monkey Fas ligand extracellular domain, long form, His-tagged (RhFasL^L, 103-281) (domain or fragment, UniProt P63307 103-280, looked up, Rhesus monkey Fas ligand (FasL), entire extracellular domain, residues 103-281, carries P153; source: Freestyle CHO-S cells, transfected, purified from supernatant (his-TRAP); not shown: His tag, N-terminal, kept) LFHLQKELAELRESTSQKHTASSLEKQIGHPSPPPEKKEQRKVAHLTGKPNSRSMPLEWEDTYGIVLLSGVKYKKGGLVINETGLYFVYSKVYFRGQSCTNLPLSHKVYMRNSKYPQDLVMMEGKMMSYCTTGQMWAHSSYLGAVFNLTSADHLYVNVSELSLVNFEESQTFFGLYKL | 3 | –
